Laboratory results as given in paper PMC7719400.

Legend:
[1] = target: ORFV125 lacking the 30 C-terminal residues (orf virus); test: SEC
[2] = target: ORFV125 lacking the 30 C-terminal residues (orf virus); test: ITC

## ORFV125 lacking the 30 C-terminal residues (domain or fragment)
[1]
  stoichiometry N: 2

B1: Bax BH3 motif peptide (human, 50-77, 28-mer) (peptide)
peptide: VPQDASTKKLSECLKRIGDELDSNMELQ
[2]
  Kd: 682 nM

B2: Puma BH3 motif peptide (human, 130-155) (peptide)
peptide: EEQWAREIGAQLRRMADDLNAQYERR
[2]
  Kd: 1750 nM

B3: Bak BH3 motif peptide (human, 67-92) (peptide)
peptide: PSSTMGQVGRQLAIIGDDINRRYDSE
[2]
  Kd: 5800 nM
